B1: bispecific antibody BM#1 against CD33 and CD123 (bispecific antibody, human IgG1)
chain 1: QVQLVESGGGSVQAGGSLRLSCAASGYTYSSTCIGWFRQAPGKDREGVAFAYTGGGVTYADSVKGRFTISQDNAKNTVHLIMNSLKPEDTAMYYCAAKTRGGCWAAAAFYNYWGQGTQVTVSSEPKSCDKTHTCPPCPAPELLGGPSVFLFPPKPKDTLMISRTPEVTCVVVDVSHEDPEVKFNWYVDGVEVHNAKTKPREEQYNSTYRVVSVLTVLHQDWLNGKEYKCKVSNKALPAPIEKTISKAKGQPREPQVYTLPPSRDELTKNQVSLWCLVKGFYPSDIAVEWESNGQPENNYKTTPPVLVSDGSFTLYSKLTVDKSRWQQGNVFSCSVMHEALHNHYTQKSLSLSPGK
chain 2: not shown
notes: VHH-Fc heterodimer
B2: bispecific antibody BM#3 against CD33 and CD123 (bispecific antibody, human IgG1)
chain 1: QVQLVESGGGSVQAGGSLRLSCAASGYTYSSTCIGWFRQAPGKDREGVAFAYTGGGVTYADSVKGRFTISQDNAKNTVHLIMNSLKPEDTAMYYCAAKTRGGCWAAAAFYNYWGQGTQVTVSSEPKSCDKTHTCPPCPAPELLGGPSVFLFPPKPKDTLMISRTPEVTCVVVDVSHEDPEVKFNWYVDGVEVHNAKTKPREEQYNSTYRVVSVLTVLHQDWLNGKEYKCKVSNKALPAPIEKTISKAKGQPREPQVYTLPPSRDELTKNQVSLVCLVKGFYPSDIAVEWESNGQPENNYKTTPPVLVSDGSFTLYSKLTVDKSRWQQGNVFSCSVMHEALHNHYTQKSLSLSPGK
chain 2: not shown
notes: VHH-Fc heterodimer; also called BM-RT2831-#3
B3: bispecific antibody BM#13 against CD33 and CD123 (bispecific antibody, human IgG1)
chain 1: not shown
chain 2: QVQLVESGGGSVQAGGSLKLSCAASRFIFSRCGMGWFRQAPGKERELVSTISGDGTTFYADSVKGRFTISQHNAATTLYLQMNSLKLEDTAVYYCAADCYNRKYWGQGTQVTVSSEPKSCDKTHTCPPCPAPELLGGPSVFLFPPKPKDTLMISRTPEVTCVVVDVSHEDPEVKFNWYVDGVEVHNAKTKPREEQYNSTYRVVSVLTVLHQDWLNGKEYKCKVSNKALPAPIEKTISKAKGQPREPQVYTLPPSRDELTKNQVSLTCLVKGFYPSDIAVEWESNGQPENNYKTTPPVLVSDGSFTLASKLTVDKSRWQQGNVFSCSVMHEALHNHYTQKSLSLSPGK
notes: VHH-Fc heterodimer
B4: bispecific antibody BM#14 against CD33 and CD123 (bispecific antibody, human IgG1)
chain 1: QVQLVESGGGSVQAGGSLRLSCAASGYTYSSTCIGWFRQAPGKDREGVAFAYTGGGVTYADSVKGRFTISQDNAKNTVHLIMNSLKPEDTAMYYCAAKTRGGCWAAAAFYNYWGQGTQVTVSSEPKSCDKTHTCPPCPAPELLGGPSVFLFPPKPKDTLMISRTPEVTCVVVDVSHEDPEVKFNWYVDGVEVHNAKTKPREEQYNSTYRVVSVLTVLHQDWLNGKEYKCKVSNKALPAPIEKTISKAKGQPREPQVYTLPPSRDELTKNQVSLVCLVEGFYPSDIAVEWESNGQPENNYKTTPPVLDSDGSFFLYSDLTVDKSRWQQGNVFSCSVMHEALHNHYTQKSLSLSPGK
chain 2: QVQLVESGGGSVQAGGSLKLSCAASRFIFSRCGMGWFRQAPGKERELVSTISGDGTTFYADSVKGRFTISQHNAATTLYLQMNSLKLEDTAVYYCAADCYNRKYWGQGTQVTVSSEPKSCDKTHTCPPCPAPELLGGPSVFLFPPKPKDTLMISRTPEVTCVVVDVSHEDPEVKFNWYVDGVEVHNAKTKPREEQYNSTYRVVSVLTVLHQDWLNGKEYKCKVSNKALPAPIEKTISKAKGQPREPQVYTLPPSRDKLTKNQVSLTCLVKGFYPSDIAVEWESNGQPENNYKTTPPVLKSDGSFFLASKLTVDKSRWQQGNVFSCSVMHEALHNHYTQKSLSLSPGK
notes: VHH-Fc heterodimer
B5: bispecific antibody BM#24 against CD33 and CD123 (bispecific antibody, human IgG1)
chain 1: QVQLVESGGGSVQAGGSLRLSCAASGYTYSSTCIGWFRQAPGKDREGVAFAYTGGGVTYADSVKGRFTISQDNAKNTVHLIMNSLKPEDTAMYYCAAKTRGGCWAAAAFYNYWGQGTQVTVSSEPKSCDKTHTCPPCPAPELLGGPSVFLFPPKPKDTLMISRTPEVTCVVVDVSHEDPEVKFNWYVDGVEVHNAKTKPREEQYNSTYRVVSVLTVLHQDWLNGKEYKCKVSNKALPAPIEKTISKAKGQPREPQVYTLPPSRKDLTKNQVSLTCLVKGFYPSDIAVEWESNGQPENNYKTTPPVLDSDGSFFLASKLTVDKSRWQQGNVFSCSVMHEALHNHYTQKSLSLSPGK
chain 2: QVQLVESGGGSVQAGGSLKLSCAASRFIFSRCGMGWFRQAPGKERELVSTISGDGTTFYADSVKGRFTISQHNAATTLYLQMNSLKLEDTAVYYCAADCYNRKYWGQGTQVTVSSEPKSCDKTHTCPPCPAPELLGGPSVFLFPPKPKDTLMISRTPEVTCVVVDVSHEDPEVKFNWYVDGVEVHNAKTKPREEQYNSTYRVVSVLTVLHQDWLNGKEYKCKVSNKALPAPIEKTISKAKGQPREPQVYTLPPSRDELTKNQVSLTCLVYGFYPSDIAVEWESNGQPENNYKTTPPVLDSDGSFFLYSVLTVDKSRWQQGNVFSCSVMHEALHNHYTQESLSLSPGK
notes: VHH-Fc heterodimer; also called BM-RT2831-#24
B6: bispecific antibody BM#12 against CD33 and CD123 (bispecific antibody, human IgG1)
chain 1: QVQLVESGGGSVQAGGSLRLSCAASGYTYSSTCIGWFRQAPGKDREGVAFAYTGGGVTYADSVKGRFTISQDNAKNTVHLIMNSLKPEDTAMYYCAAKTRGGCWAAAAFYNYWGQGTQVTVSSEPKSCDKTHTCPPCPAPELLGGPSVFLFPPKPKDTLMISRTPEVTCVVVDVSHEDPEVKFNWYVDGVEVHNAKTKPREEQYNSTYRVVSVLTVLHQDWLNGKEYKCKVSNKALPAPIEKTISKAKGQPREPQVYTLPPSRDELTKNQVSLWCLVEGFYPSDIAVEWESNGQPENNYKTTPPVLDSDGSFFLYSDLTVDKSRWQQGNVFSCSVMHEALHNHYTQKSLSLSPGK
chain 2: not shown
notes: VHH-Fc heterodimer
B7: bispecific antibody BM#22 against CD33 and CD123 (bispecific antibody, human IgG1)
chain 1: QVQLVESGGGSVQAGGSLRLSCAASGYTYSSTCIGWFRQAPGKDREGVAFAYTGGGVTYADSVKGRFTISQDNAKNTVHLIMNSLKPEDTAMYYCAAKTRGGCWAAAAFYNYWGQGTQVTVSSEPKSCDKTHTCPPCPAPELLGGPSVFLFPPKPKDTLMISRTPEVTCVVVDVSHEDPEVKFNWYVDGVEVHNAKTKPREEQYNSTYRVVSVLTVLHQDWLNGKEYKCKVSNKALPAPIEKTISKAKGQPREPQVYTLPPSRDKLTKNQVSLTCLVKGFYPSDIAVEWESNGQPENNYKTTPPVLVSDGSFTLYSKLTVDKSRWQQGNVFSCSVMHEALHNHYTQKSLSLSPGK
chain 2: not shown
notes: VHH-Fc heterodimer; also called BM-RT2831-#22
B8: bispecific antibody BM#21 against CD33 and CD123 (bispecific antibody, human IgG1)
chain 1: QVQLVESGGGSVQAGGSLRLSCAASGYTYSSTCIGWFRQAPGKDREGVAFAYTGGGVTYADSVKGRFTISQDNAKNTVHLIMNSLKPEDTAMYYCAAKTRGGCWAAAAFYNYWGQGTQVTVSSEPKSCDKTHTCPPCPAPELLGGPSVFLFPPKPKDTLMISRTPEVTCVVVDVSHEDPEVKFNWYVDGVEVHNAKTKPREEQYNSTYRVVSVLTVLHQDWLNGKEYKCKVSNKALPAPIEKTISKAKGQPREPQVYTLPPSRKELTKNQVSLTCLVKGFYPSDIAVEWESNGQPENNYKTTPPVLVSDGSFTLYSKLTVDKSRWQQGNVFSCSVMHEALHNHYTQKSLSLSPGK
chain 2: not shown
notes: VHH-Fc heterodimer; also called BM-RT2831-#21
B9: bispecific antibody BM#4 against CD33 and CD123 (bispecific antibody, human IgG1)
chain 1: QVQLVESGGGSVQAGGSLRLSCAASGYTYSSTCIGWFRQAPGKDREGVAFAYTGGGVTYADSVKGRFTISQDNAKNTVHLIMNSLKPEDTAMYYCAAKTRGGCWAAAAFYNYWGQGTQVTVSSEPKSCDKTHTCPPCPAPELLGGPSVFLFPPKPKDTLMISRTPEVTCVVVDVSHEDPEVKFNWYVDGVEVHNAKTKPREEQYNSTYRVVSVLTVLHQDWLNGKEYKCKVSNKALPAPIEKTISKAKGQPREPQVYTLPPSRDKLTKNQVSLVCLVKGFYPSDIAVEWESNGQPENNYKTTPPVLKSDGSFFLYSKLTVDKSRWQQGNVFSCSVMHEALHNHYTQKSLSLSPGK
chain 2: QVQLVESGGGSVQAGGSLKLSCAASRFIFSRCGMGWFRQAPGKERELVSTISGDGTTFYADSVKGRFTISQHNAATTLYLQMNSLKLEDTAVYYCAADCYNRKYWGQGTQVTVSSEPKSCDKTHTCPPCPAPELLGGPSVFLFPPKPKDTLMISRTPEVTCVVVDVSHEDPEVKFNWYVDGVEVHNAKTKPREEQYNSTYRVVSVLTVLHQDWLNGKEYKCKVSNKALPAPIEKTISKAKGQPREPQVYTLPPSRDELTKNQVSLTCLVEGFYPSDIAVEWESNGQPENNYKTTPPVLDSDGSFFLASDLTVDKSRWQQGNVFSCSVMHEALHNHYTQKSLSLSPGK
notes: VHH-Fc heterodimer; also called BM-RT2831-#4
B10: bispecific antibody BM#23 against CD33 and CD123 (bispecific antibody, human IgG1)
chain 1: QVQLVESGGGSVQAGGSLRLSCAASGYTYSSTCIGWFRQAPGKDREGVAFAYTGGGVTYADSVKGRFTISQDNAKNTVHLIMNSLKPEDTAMYYCAAKTRGGCWAAAAFYNYWGQGTQVTVSSEPKSCDKTHTCPPCPAPELLGGPSVFLFPPKPKDTLMISRTPEVTCVVVDVSHEDPEVKFNWYVDGVEVHNAKTKPREEQYNSTYRVVSVLTVLHQDWLNGKEYKCKVSNKALPAPIEKTISKAKGQPREPQVYTLPPSRDDLTKNQVSLTCLVKGFYPSDIAVEWESNGQPENNYKTTPPVLVSDGSFTLYSKLTVDKSRWQQGNVFSCSVMHEALHNHYTQKSLSLSPGK
chain 2: not shown
notes: VHH-Fc heterodimer; also called BM-RT2831-#23
B11: bispecific antibody BM#2 against CD33 and CD123 (bispecific antibody, human IgG1)
chain 1: QVQLVESGGGSVQAGGSLRLSCAASGYTYSSTCIGWFRQAPGKDREGVAFAYTGGGVTYADSVKGRFTISQDNAKNTVHLIMNSLKPEDTAMYYCAAKTRGGCWAAAAFYNYWGQGTQVTVSSEPKSCDKTHTCPPCPAPELLGGPSVFLFPPKPKDTLMISRTPEVTCVVVDVSHEDPEVKFNWYVDGVEVHNAKTKPREEQYNSTYRVVSVLTVLHQDWLNGKEYKCKVSNKALPAPIEKTISKAKGQPREPQVYTLPPSRDKLTKNQVSLWCLVKGFYPSDIAVEWESNGQPENNYKTTPPVLKSDGSFFLYSKLTVDKSRWQQGNVFSCSVMHEALHNHYTQKSLSLSPGK
chain 2: not shown
notes: VHH-Fc heterodimer

Legend:
human FCγRIIIa receptor [1] = target: T1, human FCγRIIIa receptor (human, UniProt P08637 17-208, limits assumed); experiment: BLI; Ratio against the hIgG (hIgG1) control, fits KD(hIgG)/KD(sample)
T1 construct: Used in solution as the 'antigen' in BLI; also called FcγIIIa receptor
Protocol: (§1) (3) Preparation of antigen working solution: 200 nM antigen (FCγRIIIa) in SD buffer was first prepared at and then serially diluted in 2 folds to prepare a total of 5 concentration gradients, in addition to which a zero concentration was prepared.
(§2) (11) Data analysis: related constants, such as KD, Kon, Koff, X2, Full R2 and the like were calculated in Data Analysis software.
(§3) In the examples of the present application, the modified bispecific antibody was subjected to BLI test to determine the affinity of the modified bispecific antibody to human FCγRIIIa.

human FCγRIIIa receptor [2] = target: T1, human FCγRIIIa receptor; experiment: BLI (Octet 96), antibody loaded on sensor, FCγRIIIa 200 nM and 2-fold dilutions in solution
Protocol: as §1, §2, §3

T1 sequence (P08637 17-208 limits assumed): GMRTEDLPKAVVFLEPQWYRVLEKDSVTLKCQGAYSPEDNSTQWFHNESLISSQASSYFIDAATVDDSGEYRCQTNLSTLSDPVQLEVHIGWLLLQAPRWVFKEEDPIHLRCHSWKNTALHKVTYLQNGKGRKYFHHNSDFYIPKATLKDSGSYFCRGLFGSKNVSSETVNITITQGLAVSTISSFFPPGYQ

| Binder | Ratio (human FCγRIIIa receptor [1]) | Kd (human FCγRIIIa receptor [2]) |
| --- | --- | --- |
| B1 | 1.29 | 68.9 nM |
| B2 | 1 | 88.2 nM |
| B3 | 1.42 | 62.5 nM |
| B4 | 1.61 | 55.2 nM |
| B5 | 1.06 | 83.3 nM |
| B6 | 1.65 | 53.8 nM |
| B7 | 1.03 | 86.3 nM |
| B8 | 1.04 | 85.4 nM |
| B9 | 1.19 | 74.2 nM |
| B10 | 1.08 | 82.1 nM |
| B11 | 1.12 | 79.1 nM |

— patent US20250163166A1 (REGENECORE BIOTECH, published 2025)
